# B1: Serine/threonine-protein kinase D2 (Homo sapiens), Q9BZL6 (parent)
# chain: MATAPSYPAGLPGSPGPGSPPPPGGLELQSPPPLLPQIPAPGSGVSFHIQIGLTREFVLLPAASELAHVKQLACSIVDQKFPECGFYGLYDKILLFKHDPTSANLLQLVRSSGDIQEGDLVEVVLSASATFEDFQIRPHALTVHSYRAPAFCDHCGEMLFGLVRQGLKCDGCGLNYHKRCAFSIPNNCSGARKRRLSSTSLASGHSVRLGTSESLPCTAEELSRSTTELLPRRPPSSSSSSSASSYTGRPIELDKMLLSKVKVPHTFLIHSYTRPTVCQACKKLLKGLFRQGLQCKDCKFNCHKRCATRVPNDCLGEALINGDVPMEEATDFSEADKSALMDESEDSGVIPGSHSENALHASEEEEGEGGKAQSSLGYIPLMRVVQSVRHTTRKSSTTLREGWVVHYSNKDTLRKRHYWRLDCKCITLFQNNTTNRYYKEIPLSEILTVESAQNFSLVPPGTNPHCFEIVTANATYFVGEMPGGTPGGPSGQGAEAARGWETAIRQALMPVILQDAPSAPGHAPHRQASLSISVSNSQIQENVDIATVYQIFPDEVLGSGQFGVVYGGKHRKTGRDVAVKVIDKLRFPTKQESQLRNEVAILQSLRHPGIVNLECMFETPEKVFVVMEKLHGDMLEMILSSEKGRLPERLTKFLITQILVALRHLHFKNIVHCDLKPENVLLASADPFPQVKLCDFGFARIIGEKSFRRSVVGTPAYLAPEVLLNQGYNRSLDMWSVGVIMYVSLSGTFPFNEDEDINDQIQNAAFMYPASPWSHISAGAIDLINNLLQVKMRKRYSVDKSLSHPWLQEYQTWLDLRELEGKMGERYITHESDDARWEQFAAEHPLPGSGLPTDRDLGGACPPQDHDMQGLAERISVL
# partner: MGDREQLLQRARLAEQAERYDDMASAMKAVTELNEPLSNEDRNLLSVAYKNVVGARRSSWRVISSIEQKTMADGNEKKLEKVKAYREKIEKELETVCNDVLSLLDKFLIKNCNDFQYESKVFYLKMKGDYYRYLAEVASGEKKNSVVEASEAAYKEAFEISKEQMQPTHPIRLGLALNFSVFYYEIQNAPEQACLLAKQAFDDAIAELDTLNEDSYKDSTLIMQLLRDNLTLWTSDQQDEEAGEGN
# Variants of: B1
# Settings: with 1433f_human YWHAH
row,Variant,effect of a mutation on the interaction
1,S244E;S706E;S710E,disrupting interaction
